From article PMC2887905

How the values were obtained:
[1] = target: Recombinant HIV-1 gp120 (LAV, CXCR4 monotropic, identical to NL4-3 gp120, glycosylated) (HIV-1 (LAV; identical to NL4-3 gp120)) (UniProt P03377)
[2] = target: gp41 (ARP671, spanning the entire extracellular domain of HIV-1 gp41MN) (HIV-1 (MN)) (UniProt P05877); test: SPR; gp41 immobilised on a biosensor; data not shown
UniProt P05877, sequence (P05877 32-685): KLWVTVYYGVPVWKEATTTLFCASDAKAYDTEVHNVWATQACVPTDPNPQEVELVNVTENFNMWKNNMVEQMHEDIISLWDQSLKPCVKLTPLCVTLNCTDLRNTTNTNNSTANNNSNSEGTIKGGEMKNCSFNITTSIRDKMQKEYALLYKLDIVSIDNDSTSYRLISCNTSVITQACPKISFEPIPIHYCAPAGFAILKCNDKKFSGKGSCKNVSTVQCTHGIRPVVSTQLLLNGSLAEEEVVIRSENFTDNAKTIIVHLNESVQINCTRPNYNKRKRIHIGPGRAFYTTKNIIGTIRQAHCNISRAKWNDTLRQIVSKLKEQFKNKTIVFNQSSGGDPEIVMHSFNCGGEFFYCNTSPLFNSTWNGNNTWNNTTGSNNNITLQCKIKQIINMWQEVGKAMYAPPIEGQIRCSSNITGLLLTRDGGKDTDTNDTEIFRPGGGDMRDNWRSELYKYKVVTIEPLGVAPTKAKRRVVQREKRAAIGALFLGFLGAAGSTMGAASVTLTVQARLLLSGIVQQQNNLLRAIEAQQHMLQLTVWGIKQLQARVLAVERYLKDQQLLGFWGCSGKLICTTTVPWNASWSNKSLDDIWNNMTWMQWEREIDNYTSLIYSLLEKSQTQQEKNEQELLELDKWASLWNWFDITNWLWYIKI

Substance	neutralisation of HIV-1 NL4-3 infection, p24 antigen ELISA on day 5, dose-dependent, value at 20 μg/ml [1]	response units [2]	neutralisation of HIV-1 NL4-3 infection, p24 antigen ELISA on day 5, value at 50 μg/ml [1]
HOCl-modified bovine serum albumin (protein:HOCl molar ratio 1:1000) (from UniProt P02769 25-607)	> 90%	< 5 RU	
HOCl-modified mouse serum albumin (protein:HOCl molar ratio 1:1000) (from UniProt P07724 25-608)		< 5 RU	> 90%
HOCl-modified human serum albumin (protein:HOCl molar ratio 1:1000) (from UniProt P02768 25-609)	> 95%	< 5 RU	
